Measured values reported in patent US20260062442A1, “COMPOSITIONS AND METHODS FOR PURIFYING ANTIGEN-BINDING ANTIBODY FRAGMENTS USING PEPTIDE LIGANDS” (North Carolina State University, priority 2022, published 2026).
One block for each molecule: values may come before it. Ends that are not written are not given here.

What was measured:
human polyclonal Fab [1] = assay: Dynamic binding of human polyclonal Fab on peptide-Toyopearl resins (chromatograms); conditions: residence time 2 min; for binding of human polyclonal Fab (chromatogram): human polyclonal Fab at 2 mg/mL in PBS; for amount of human Fab that flowed through: human Fab at 2 mg/mL in PBS
Method: (§1) Dynamic binding of human Fab-κ and Fab-λ in non-competitive condition. The peptides listed in Table 3 were synthesized on Toyopearl resins as described herein, and the resulting adsorbents were packed into 0.1 mL (30×2.1 mm) columns, installed on a Waters Alliance 2695 HPLC system (Milford, MA), and equilibrated with PBS at pH 7.4. […] The subsequent chromatographic steps of washing with PBS, elution with 0.2 M acetate buffer pH 4, regeneration with 0.1 M glycine buffer pH 2.5, and equilibration with PBS were all performed at 348 cm/h. The dynamic binding protocol was repeated with 50 μL of human Fab-κ and Fab-λ, both at 1 mg/mL in PBS. The column effluent was continuously monitored at 280 nm by UV spectrophotometry. The yield was determined by peak area analysis and determined by taking the area of the elution peak divided by the flow-through, elution, and regeneration peak areas. Finally, the dynamic binding capacity at 10% flowthrough of […]-Toyopearl resin was measured via continuous loading of a solution of human polyclonal Fab at either 1, 2, or 5 mg/mL in PBS at the linear velocity of either 173, 87, or 35 cm/h, corresponding to the residence times (RT) of 1, 2, and 5 min, until reaching saturation of the adsorbent. The dynamic binding capacity of Protein L-agarose resin was measured via continuous loading of human polyclonal Fab at 1 mg/mL in PBS at the linear velocity of either 173 or 87 cm/h, corresponding to RT of 1 and 2 min, until reaching saturation of the adsorbent.
Secondary selection of Fab-binding peptide ligands via dynamic binding studies. The candidate ligands selected from library screening were conjugated to Toyopearl AF-Amino-650M resin and evaluated via Fab binding studies in dynamic mode. Toyopearl resin was selected for chromatographic evaluation owing to its low non-specific protein adsorption, low compressibility, and strong chemical stability. The residence time of 2 minutes (RT: 2 min) was adopted to mimic the loading conditions utilized in industrial bioprocessing. A solution of human polyclonal Fab at 2 mg/mL in PBS was adopted as feedstock to discern ligands that either bind all Fab or target selectively Fab-κ or Fab-λ; accordingly, the top ligands by elution peak area were subjected to further analysis with either pure k or λ subtypes. Finally, in line with library screening, A 0.2 M acetate buffer was utilized at pH 4 for Fab elution; this value of pH is sufficient to ensure high yield without compromising the integrity and bioactivity of the product. This represents a distinct advantage of peptide ligands with moderate affinity compared to high-affinity protein ligands; for comparison, Protein L as well as KappaSelect and LambdaFabSelect resins require elution at pH 2.5-3.

monoclonal Fab-κ = conditions: cited from earlier work
[2] = target: engineered monoclonal Fab-κ (0.171 mg/mL in clarified CHO-K1 cell culture harvest); assay: capture from CHO-K1 CCCF with engineered Fab 0.171 mg/mL, elution pH 2.5; yield by anti-human Fab ELISA
human Fab-κ (human) [3] = assay: equilibrium adsorption isotherm on resin, Langmuir fit
human Fab-κ = assay: Dynamic binding of human Fab-κ in non-competitive condition on peptide-Toyopearl resins; conditions: κ and λ Fabs, 1 mg/mL in PBS, residence time 2 min
Method: as §1, with “The dynamic binding capacity of Protein L-agarose resin was measured via continuous loading of human polyclonal Fab at 1 mg/mL in PBS at the linear velocity of either 173 or 87 cm/h, corresponding to RT of 1 and 2 min, until reaching saturation of the adsorbent.” left out

human polyclonal Fab [4] = assay: Dynamic binding capacity at 10% breakthrough with human polyclonal Fab in PBS; conditions: RT of 2 min, range
Method: as §1, with “The dynamic binding capacity of Protein L-agarose resin was measured via continuous loading of human polyclonal Fab at 1 mg/mL in PBS at the linear velocity of either 173 or 87 cm/h, corresponding to RT of 1 and 2 min, until reaching saturation of the adsorbent.” left out

scFv13R4 = assay: Purification of scFv from P. pastoris perfusate; conditions: scFv eluted at 0.1 M glycine pH 2.5, not at pH 4
Method: Preparation of spiked feedstock. A wild-type X33 P. pastoris strain was obtained from ThermoFisher Scientific as an agar stab. This stab was used to create freezer stocks, which were stored at −80° C. A vial from the freezer stock was thawed, plated on a yeast extract peptone dextrose (YPD) agar plate, and incubated at 30° C. A single colony was then used to inoculate a 1 L vented shake flask containing 100 mL of Buffered Glycerol-complex Medium (BMGY), and the flask was incubated at 250 rpm at 30° C. A 300 mL bioreactor connected to a perfusion device was prepared and inoculated with cells harvested from the shake flask. After an initial growth phase, the perfusion system was activated, and fluid was continuously extracted from the bioreactor at a rate of 1.5 vessel volumes per day (VVD) while retaining the cells. Simultaneously to activating the perfusion system, a 2% v/v methanol feedstock containing IgG at 0.5 mg/mL began to be fed continuously into the bioreactor at 1.5 VVD. […]
Purification of scFv from P. pastoris perfusate. […] Washing, elution, and regeneration steps were all performed at 0.5 mL/min (231 cm/h), while the effluent was continuously monitored by UV spectrophotometry at 280 nm. […] The collected fractions were analyzed via non-reducing SDS-PAGE analysis after concentration and diafiltration to PBS at pH 7.4 by a 10 kDa MWCO spin concentrator.

[5] = target: human polyclonal Fab (human); assay: dynamic binding on peptide-Toyopearl column, human Fab 2 mg/mL in PBS, residence time 2 min
human Fab-κ (human) [6] = assay: dynamic binding on peptide-Toyopearl column, Fab 1 mg/mL in PBS, residence time 2 min, elution pH 4; yield = elution peak area over total peak area
human Fab-λ (human) [7] = assay: as above
[8] = target: human polyclonal Fab (human); assay: equilibrium adsorption isotherm on resin, Langmuir fit
Certolizumab pegol [9] = assay: capture from CHO-S CCCF spiked with Certolizumab 1 mg/mL, elution pH 4
[10] = target: human polyclonal Fab (human); assay: dynamic binding capacity at 10% breakthrough, Fab 1 mg/mL in PBS, residence time 1 min
[11] = target: human polyclonal Fab (human); assay: dynamic binding capacity at 10% breakthrough, Fab 1 mg/mL in PBS, residence time 2 min
[12] = target: human polyclonal Fab (human); assay: dynamic binding capacity at 10% breakthrough, Fab 1 mg/mL in PBS, residence time 5 min
[13] = target: human polyclonal Fab (human); assay: dynamic binding capacity at 10% breakthrough, Fab 2 mg/mL in PBS, residence time 2 min
[14] = target: human polyclonal Fab (human); assay: dynamic binding capacity at 10% breakthrough, Fab 5 mg/mL in PBS, residence time 1 min
[15] = target: human polyclonal Fab (human); assay: dynamic binding capacity at 10% breakthrough, Fab 5 mg/mL in PBS, residence time 2 min
human Fab-κ (human) [16] = assay: dynamic binding on peptide-Toyopearl column, Fab 1 mg/mL in PBS, residence time 2 min
human Fab-λ (human) [17] = assay: as above
[18] = target: human polyclonal IgG (human); assay: capture of IgG 0.5 mg/mL from P. pastoris perfusate, elution pH 4; yield by Protein G HPLC
[19] = target: engineered monoclonal Fab-κ (0.171 mg/mL in clarified CHO-K1 cell culture harvest); assay: capture from CHO-K1 CCCF with engineered Fab 0.171 mg/mL, elution pH 4; yield by anti-human Fab ELISA
[20] = target: human polyclonal Fab (human); assay: capture from null CHO-S CCCF spiked with human Fab 1 mg/mL, elution pH 4; yield by anti-human Fab ELISA
Certolizumab pegol [21] = assay: capture from null CHO-S CCCF spiked with Certolizumab 1 mg/mL, elution pH 4; yield by anti-human Fab ELISA
[22] = target: human polyclonal IgG (human); assay: dynamic binding capacity at 10% breakthrough, P. pastoris perfusate with IgG 0.5 mg/mL, residence time 2 min

Molecule: WIPNSEFEHERTK [B1, peptide ligand for monoclonal Fab-κ identified by Nascimento et al]
binding of human polyclonal Fab (chromatogram) (human polyclonal Fab [1]): failed to bind
affinity for two other monoclonal Fabs (monoclonal Fab-κ): little-to-no affinity

Molecule: WHYNWQDVSDRQ [A5, variant peptide ligand developed by Nascimento et al]
amount of human Fab that flowed through (human polyclonal Fab [1]): 61%

Molecule: HQNHHSTFRWEIY [C7, variant peptide ligand developed by Nascimento et al]
amount of human Fab that flowed through (human polyclonal Fab [1]): 79%

Molecule: IIHRRAFWWFPN
fraction of the loaded Fab bound (human Fab-κ): approximately half

Molecule: FRWNFHRNTFFP
fraction of the loaded Fab bound (human Fab-κ): approximately 90%
binding of human polyclonal Fab (chromatogram) (human polyclonal Fab [1]): very low flow-through peak area
DBC10% (human polyclonal Fab [4]): 6 to 16 mg/mL
relative affinity for scFv vs Fab (scFv13R4): higher affinity for scFv than Fab

B2: … (peptide)
peptide: RWTIWPPNWHPP
modifications: also: C-terminus attached to Toyopearl AF-Amino-650M resin or ChemMatrix bead
Fab-κ Yield (human Fab-κ (human) [6]): 40%
Fab-λ Yield (human Fab-λ (human) [7]): 53%

B3: … (peptide)
peptide: FRWNFHRNTFFP
modifications: also: C-terminus attached to Toyopearl AF-Amino-650M resin or ChemMatrix bead
Kd (human Fab-κ (human) [3]): 2050 nM
Qmax (mg per mL of resin) (human Fab-κ (human) [3]): 19
Kd [8]: 2160 nM
Qmax (mg per mL of resin) [8]: 20.4
Yield (Certolizumab pegol [9]): 96.5%
DBC10% (mg Fab per mL of resin) [10]: 4.5
DBC10% (mg Fab per mL of resin) [11]: 6
DBC10% (mg Fab per mL of resin) [12]: 7
DBC10% (mg Fab per mL of resin) [13]: 10.9
DBC10% (mg Fab per mL of resin) [14]: 15.5
DBC10% (mg Fab per mL of resin) [15]: 16.5
percent of the load bound (human Fab-κ (human) [16]): 90%
percent of the load bound (human Fab-λ (human) [17]): 90%
Yield [18]: 33%
Yield [19]: 93.3%
Yield [20]: 94.1%
Yield (Certolizumab pegol [21]): 96%
DBC10% (mg IgG per mL of resin) [22]: 13.4
DBC10% (mg IgG per mL resin) [22]: 13.4
Fab-κ Yield (human Fab-κ (human) [6]): 89%
Fab-λ Yield (human Fab-λ (human) [7]): 91%

B4: … (peptide)
peptide: IIHRRAFWWFPN
modifications: also: C-terminus attached to Toyopearl AF-Amino-650M resin or ChemMatrix bead
Kd (human Fab-κ (human) [3]): 5820 nM
Qmax (mg per mL of resin) (human Fab-κ (human) [3]): 11.9
Kd [8]: 5140 nM
Qmax (mg per mL of resin) [8]: 13.5
Fab-κ Yield (human Fab-κ (human) [6]): 55%
Fab-λ Yield (human Fab-λ (human) [7]): 66%

B5: … (peptide)
peptide: WHYNWQDVSDRQ
modifications: also: attached to Toyopearl resin, site not given here
percent of human Fab that flowed through (unbound) [5]: 61%

Further lines, results first:

Yield [2]: 91%
Molecule: Protein L-agarose resin

Kd (human Fab-κ (human) [3]): 30.9 nM
Qmax (mg per mL of resin) (human Fab-κ (human) [3]): 20.7
Molecule: Protein L-Sepharose resin

percent of human Fab that flowed through (unbound) [5]: 79%
B1: … (peptide)
peptide: HQNHHSTFRWEIY
modifications: also: attached to Toyopearl resin, site not given here

Fab-κ Yield (human Fab-κ (human) [6]): 42%
Fab-λ Yield (human Fab-λ (human) [7]): 42%
B6: … (peptide)
peptide: IRHHNIWFNTIA
modifications: also: C-terminus attached to Toyopearl AF-Amino-650M resin or ChemMatrix bead
